Test results: article PMC5966431
Blank lines part the entries; values can stand above or below the substance they belong to.

Tests used:
Experiment in all cases: SEC; Size-exclusion chromatography of the purified His6-tagged recombinant proteins. Column and buffer are not told for these proteins. Dimerization was not detected consistently under the authors' conditions.
[1] = biological target: Mase04140 (PL17 family alginate lyase, subfamily 2, Alteromonas macleodii) (Alteromonas macleodii)
[2] = biological target: Pedsa1196 (PL17 family alginate lyase, subfamily 2, Pedobacter saltans) (Pedobacter saltans)
[3] = biological target: Valg4460 (PL17 family polysaccharide lyase, subfamily 2, Vibrio alginolyticus) (Vibrio alginolyticus)

stoichiometry N [1]: 2
Substance: Mase04140 (PL17 family alginate lyase, subfamily 2, Alteromonas macleodii) (enzyme)

stoichiometry N [2]: 2
Substance: Pedsa1196 (PL17 family alginate lyase, subfamily 2, Pedobacter saltans) (enzyme)

stoichiometry N [3]: 2
Substance: Valg4460 (PL17 family polysaccharide lyase, subfamily 2, Vibrio alginolyticus) (enzyme)
